Laboratory results reported in patent publication US20110152166A1, “METHOD OF MODULATION OF PROTEIN PHOSPHORYLATION-DEPENDENT CONFORMATIONAL TRANSITIONS WITH LOW MOLECULAR WEIGHT COMPOUNDS” (priority 2006, published 2011).

How the values were obtained:
[1] = target: T1, Thr221-phosphorylated S6K11-364 (Rattus norvegicus, UniProt P67999); test: S6K1 in vitro reconstitution kinase assay with tail peptides; type: biochemical
T1 construct: Purified HA-S6K1-364 was incubated with synthetic S6K1 (rat) tail peptides; made in house; host or cells: COS7, co-transfected with myc-PDK1; anti-HA immunoprecipitate
T1 sequence (P67999 24-387): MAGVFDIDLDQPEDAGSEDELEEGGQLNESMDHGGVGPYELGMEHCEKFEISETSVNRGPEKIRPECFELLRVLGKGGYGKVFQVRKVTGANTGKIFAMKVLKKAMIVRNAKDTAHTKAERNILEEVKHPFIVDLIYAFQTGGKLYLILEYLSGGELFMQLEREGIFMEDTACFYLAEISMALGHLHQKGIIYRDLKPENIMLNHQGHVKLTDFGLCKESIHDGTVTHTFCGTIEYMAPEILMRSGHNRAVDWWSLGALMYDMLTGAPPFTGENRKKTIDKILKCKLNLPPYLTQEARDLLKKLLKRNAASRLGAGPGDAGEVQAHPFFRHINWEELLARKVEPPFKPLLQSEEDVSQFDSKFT
Text: We established an in vitro reconstitution assay that could test a direct activation of the AGC kinase domain by the tail phosphate and characterize its cooperation with the HM and activation loop phosphates. The deletion mutant S6K11-364, which contains the kinase domain, but lacks the region of the tail containing the tail site and the HM as well as the C-terminal autoinhibitory domain, was expressed and purified from COS7 cells, either non-phosphorylated or phosphorylated at T221 in the activation loop, achieved by co-expression with PDK1. Purified S6K11-364 was then incubated with synthetic peptides of the S6K1 tail (residues 366-395: QTPVDS^371PDDSTLSESANQVFLGFT^389YVAPSV), which were either non-phosphorylated (S371/T389), phosphorylated at the tail site (pS371/T389), phosphorylated in the HM (S371/pT389) or phosphorylated at both sites (pS371/pT389). Subsequently, the kinase activity of S6K11-364 was determined.
Kinase assays for PKB, RSK, S6K, MSK were done as described previously (Frodin et al., 2002). […] After washing with 150 mM orthophosphoric acid, [^32P]phosphate incorporated into peptide substrate was quantified in an FLA-3000 apparatus (Fujifilm). […]

[2] = system: GST-S6K11-365; test: Surface plasmon resonance, S6K1 binding to tail peptides; parameters: species or system rat; conditions: K144N versus wt
Description: FIG. 13. The tail phosphate synergistically enhances the ability of the HM phosphate to activate S6K, dependent on the tail phosphate-binding site. (A) The kinase activity of purified kinase domain of S6K1 (S6K11-364), pre-phosphorylated by PDK1 in the activation loop, was determined in the presence of increasing concentrations of synthetic S6K1 tail peptide (residues 366-395) that was either non-phosphorylated (S371/T389), phosphorylated at Ser371 (pS371/T389) or Thr389 (5371/pT389) or phosphorylated at both sites (pS371/pT389). (B) The kinase activity of S6K11-364 and S6K11-364K144N, either pre-phosphorylated or not by PDK1, was determined in the absence or presence of 90 μM S371/pT389 or pS371/pT389. (C) pS371/pT389 S6K1 tail peptide was biotinylated and used to coat streptavidin Sensor Chips. The chips were thereafter analyzed for binding to purified GST-S6K11-365 or GST-56K11-365K144N. (A-C) Experiments were repeated at least 3 times and activity data (expressed as percent) are means±SD.
Sixty 146 cm^2 dishes with COST cells were co-transfected with pEBG-2T-S6K1-365 and pCMV5-myc-PDK1 (ratio 3:1) using calcium phosphate precipitation or with pEBG-2T-PKCζ and pCMV5-myc-PDK1 (ratio 3:1) using Fugene HD according to the manufacturers Instructions. Two days after transfection, the cells were harvested in lysis buffer as described above. […]

Substance | stimulation of kinase activity (in words) [1] | decrease of binding of S6K11-365 to peptide by the K144N mutation [2]
S371/T389: synthetic S6K1 tail peptide (residues 366-395), non-phosphorylated | did not stimulate | 
S371/pT389: synthetic S6K1 tail peptide (residues 366-395) phosphorylated in the HM |  | no effect
